Test results from doi:10.64898/2025.12.03.692196v2.
Where a chain is given by its changes, count along the chain named. Names and notes keep the numbering of the source.

What was measured:
[1] = substrate: Nc1ncnc2c1ncn2[C@@H]1O[C@H](COP(=O)(O)OP(=O)(O)OP(=O)(O)O)[C@@H](O)[C@H]1O; experiment: purified protein, by the assay type
[2] = substrate: C[C@@H](O)[C@H](N)C(=O)O; experiment: LC-MS of AMP formed from TC-AMP, Michaelis-Menten; type: biochemical, Homo sapiens; details: 250 µM ATP, 50 mM NaHCO3, 10 mM MgCl2, Tricine pH 8.5, 37 °C

B1: YRDCWT (human YRDC, ΔN43) T89A (Homo sapiens; T89A) (protein)
chain: MSPARRCRGMRAAVAASVGLSEGPAGSRSGRLFRPPSPAPAAPGARLLRLPGSGAVQAASPERAGWTEALRAAVAELRAGAVVAVPTDALYGLACAASCSAALRAVYRLKGRSEAKPLAVCLGRVADVYRYCRVRVPEGLLKDLLPGPVTLVMERSEELNKDLNPFTPLVGIRIPDHAFMQDLAQMFEGPLALTSANLSSQASSLNVEEFQDLWPQLSLVIDGGQIGDGQSPECRLGSTVVDLSVPGKFGIIRPGCALESTTAILQQKYGLLPSHASYL
Km [1]: 230.7 ± 217.6 µM
kcat [1]: 0.02 ± 0.001 s⁻¹
kcat/Km [1]: 90 ± 80 M⁻¹ s⁻¹

B2: YRDCS195A (Homo sapiens; S238A) (protein)
chain: B1 chain with A89T, S238A
Km [1]: 711.8 ± 175.5 µM
kcat [1]: 0.005 ± 0.0009 s⁻¹
kcat/Km [1]: 7 ± 2 M⁻¹ s⁻¹

B3: YRDCWT (human YRDC, ΔN43) (Homo sapiens; R253K) (protein)
chain: GARLLRLPGSGAVQAASPERAGWTEALRAAVAELRAGAVVAVPTDTLYGLACAASCSAALRAVYRLKGRSEAKPLAVCLGRVADVYRYCRVRVPEGLLKDLLPGPVTLVMERSEELNKDLNPFTPLVGIRIPDHAFMQDLAQMFEGPLALTSANLSSQASSLNVEEFQDLWPQLSLVIDGGQIGDGQSPECRLGSTVVDLSVPGKFGIIKPGCALESTTAILQQKYGLLPSHASYL
Km [1]: 737.5 ± 521.2 µM
kcat [1]: 0.005 ± 0.003 s⁻¹
kcat/Km [1]: 7 ± 6 M⁻¹ s⁻¹

B4: YRDCWT (human YRDC, ΔN43) (Homo sapiens) (protein)
chain: B3 chain with K210R
Km [2]: 7800 µM
